Results on two molecules are retold here after doi:10.1101/2023.01.27.525886 (bioRxiv, 2023).

The stoichiometry N is the number of molecules, sites or subunits per partner or assembly.

To fix the notation:
B2: Vtc4 (natural protein)
chain: MKFGEHLSKSLIRQYSYYYISYDDLKTELEDNLSKNNGQWTQELETDFLESLEIELDKVYTFCKVKHSEVFRRVKEVQEQVQHTVRLLDSNNPPTQLDFEILEEELSDIIADVHDLAKFSRLNYTGFQKIIKKHDKKTGFILKPVFQVRLDSKPFFKENYDELVVKISQLYDIARTSGRPIKGDSSAGGKQQNFVRQTTKYWVHPDNITELKLIILKHLPVLVFNTNKEFEREDSAITSIYFDNENLDLYYGRLRKDEGAEAHRLRWYGGMSTDTIFVERKTHREDWTGEKSVKARFALKERHVNDFLKGKYTVDQVFAKMRKEGKKPMNEIENLEALASEIQYVMLKKKLRPVVRSFYNRTAFQLPGDARVRISLDTELTMVREDNFDGVDRTHKNWRRTDIGVDWPFKQLDDKDICRFPYAVLEVKLQTQLGQEPPEWVRELVGSHLVEPVPKFSKFIHGVATLLNDKVDSIPFWLPQMDVDIRKPPLPTNIEITRPGRSDNEDNDFDEDDEDDAALVAAMTNAPGNSLDIEESVGYGATSAPTSNTNHVVESANAAYYQRKIRNAENPISKKYYEIVAFFDHYFNGDQISKIPKGTTFDTQIRAPPGKTICVPVRVEPKVYFATERTYLSWLSISILLGGVSTTLLTYGSPTAMIGSIGFFITSLAVLIRTVMVYAKRVVNIRLKRAVDYEDKIGPGMVSVFLILSILFSFFCNLVAK

The data set “Vtc4” addresses B2. In words: cryo-EM structure.
The data set “cryo-EM structure” deals with the molecule itself. In words: cryo-EM structure.
Data set [1] concerns the target T1, Vtc3-TAPm (S. cerevisiae, UniProt Q02725 1-835).
T1 sequence: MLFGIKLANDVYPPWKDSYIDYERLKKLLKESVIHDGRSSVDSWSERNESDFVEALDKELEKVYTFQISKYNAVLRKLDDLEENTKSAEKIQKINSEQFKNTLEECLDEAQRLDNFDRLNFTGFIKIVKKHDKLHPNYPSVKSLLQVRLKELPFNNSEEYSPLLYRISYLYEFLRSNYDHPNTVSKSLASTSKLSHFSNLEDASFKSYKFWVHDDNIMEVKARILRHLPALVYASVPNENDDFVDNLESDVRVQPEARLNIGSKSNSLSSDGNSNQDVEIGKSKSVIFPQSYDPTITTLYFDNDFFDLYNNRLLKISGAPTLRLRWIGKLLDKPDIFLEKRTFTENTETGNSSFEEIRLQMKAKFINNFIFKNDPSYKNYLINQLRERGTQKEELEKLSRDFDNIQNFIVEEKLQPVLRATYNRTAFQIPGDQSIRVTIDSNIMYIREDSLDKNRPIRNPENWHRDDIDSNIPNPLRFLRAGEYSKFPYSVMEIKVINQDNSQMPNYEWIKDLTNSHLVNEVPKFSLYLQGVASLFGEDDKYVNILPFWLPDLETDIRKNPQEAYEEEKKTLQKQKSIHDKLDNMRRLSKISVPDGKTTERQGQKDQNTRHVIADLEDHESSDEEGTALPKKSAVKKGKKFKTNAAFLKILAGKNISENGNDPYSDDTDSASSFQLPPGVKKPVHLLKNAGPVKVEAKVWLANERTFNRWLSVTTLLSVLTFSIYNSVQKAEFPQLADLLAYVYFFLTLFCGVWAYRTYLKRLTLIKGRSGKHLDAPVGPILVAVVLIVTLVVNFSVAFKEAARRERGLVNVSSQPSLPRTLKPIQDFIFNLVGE
Put plainly: affinity co-purification of the endogenous complex.

In data set [2] the target is T1, Vtc3-TAPm. Put plainly: cryo-EM structure.

B1: Vtc1 (natural protein)
chain: MSSAPLLQRTPGKKIALPTRVEPKVFFANERTFLSWLNFTVMLGGLGVGLLNFGDKIGRVSAGLFTFVAMGTMIYALVTYHWRAAAIRRRGSGPYDDRLGPTLLCFFLLVAVIINFILRLKYNDANTKL
For the molecule B1, the “stoichiometry N” value with Vtc4 is 3 Vtc1 per Vtc4. In addition, the binding result in “cryo-EM structure” and with Vtc3-TAPm [1] was “binds” throughout.

With B2, in the data set with Vtc3-TAPm [2], the “stoichiometry N” value is 1 Vtc4 per Vtc3.
